Assay results as given in patent US20230250154A1 (CYTONICS, published 2023).

Tests used:
Assay in all cases: cell-based or functional assay
MMP3 = MMP3 (human, UniProt P08254 100-477, limits assumed)
MMP9 = MMP9 (human, UniProt P14780 107-707, limits assumed)
Cathepsin G = molecular target: T1, Cathepsin G (UniProt P08311 21-244)
T1 sequence (looked up): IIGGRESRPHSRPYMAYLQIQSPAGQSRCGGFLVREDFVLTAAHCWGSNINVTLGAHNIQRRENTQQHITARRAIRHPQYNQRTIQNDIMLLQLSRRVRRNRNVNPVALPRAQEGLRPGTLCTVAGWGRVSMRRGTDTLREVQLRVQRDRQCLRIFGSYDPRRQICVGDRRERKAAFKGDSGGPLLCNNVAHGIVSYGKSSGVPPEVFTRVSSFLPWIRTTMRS

MMP7 = molecular target: T2, MMP7 (UniProt P09237 95-267, limits assumed)
T2 sequence (looked up): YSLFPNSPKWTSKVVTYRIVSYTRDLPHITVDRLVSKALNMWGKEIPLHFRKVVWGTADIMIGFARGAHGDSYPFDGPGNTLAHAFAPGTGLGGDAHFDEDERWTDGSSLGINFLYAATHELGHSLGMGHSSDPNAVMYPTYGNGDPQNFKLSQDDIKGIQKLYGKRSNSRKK

MMP2 = molecular target: T3, MMP2 (human, UniProt P08253 110-660, limits assumed)
T3 sequence (looked up): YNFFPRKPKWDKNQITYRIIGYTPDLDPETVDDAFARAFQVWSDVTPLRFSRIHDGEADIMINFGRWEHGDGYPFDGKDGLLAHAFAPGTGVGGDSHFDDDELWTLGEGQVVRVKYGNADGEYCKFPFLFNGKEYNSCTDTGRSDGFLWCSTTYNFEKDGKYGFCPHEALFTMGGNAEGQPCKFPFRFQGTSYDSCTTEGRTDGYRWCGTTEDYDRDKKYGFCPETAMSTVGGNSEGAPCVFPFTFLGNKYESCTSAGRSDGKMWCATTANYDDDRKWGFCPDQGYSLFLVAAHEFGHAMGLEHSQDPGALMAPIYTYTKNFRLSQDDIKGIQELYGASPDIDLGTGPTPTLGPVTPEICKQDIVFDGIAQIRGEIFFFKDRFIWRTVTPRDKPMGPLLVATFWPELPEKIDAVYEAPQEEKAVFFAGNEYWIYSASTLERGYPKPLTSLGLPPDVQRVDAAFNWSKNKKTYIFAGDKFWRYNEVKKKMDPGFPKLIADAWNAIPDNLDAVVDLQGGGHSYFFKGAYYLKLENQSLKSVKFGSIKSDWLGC

ADAMTS5 = molecular target: T4, ADAMTS5 (human, UniProt Q9UNA0 262-622, limits assumed)
T4 sequence (looked up): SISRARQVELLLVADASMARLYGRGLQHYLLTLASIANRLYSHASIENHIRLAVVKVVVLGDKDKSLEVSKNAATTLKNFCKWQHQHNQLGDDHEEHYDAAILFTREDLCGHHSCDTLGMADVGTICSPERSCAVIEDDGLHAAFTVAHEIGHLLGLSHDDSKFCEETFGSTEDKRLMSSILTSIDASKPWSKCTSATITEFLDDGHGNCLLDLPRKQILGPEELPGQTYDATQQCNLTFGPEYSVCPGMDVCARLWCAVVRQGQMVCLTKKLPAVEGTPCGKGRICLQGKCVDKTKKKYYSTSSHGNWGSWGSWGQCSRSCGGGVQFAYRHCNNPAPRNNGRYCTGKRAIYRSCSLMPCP

MMP13 = MMP13 (human, UniProt P45452 104-471, limits assumed)
ADAMTS4 = molecular target: T5, ADAMTS4 (human, UniProt O75173 213-685, limits assumed)
T5 sequence (looked up): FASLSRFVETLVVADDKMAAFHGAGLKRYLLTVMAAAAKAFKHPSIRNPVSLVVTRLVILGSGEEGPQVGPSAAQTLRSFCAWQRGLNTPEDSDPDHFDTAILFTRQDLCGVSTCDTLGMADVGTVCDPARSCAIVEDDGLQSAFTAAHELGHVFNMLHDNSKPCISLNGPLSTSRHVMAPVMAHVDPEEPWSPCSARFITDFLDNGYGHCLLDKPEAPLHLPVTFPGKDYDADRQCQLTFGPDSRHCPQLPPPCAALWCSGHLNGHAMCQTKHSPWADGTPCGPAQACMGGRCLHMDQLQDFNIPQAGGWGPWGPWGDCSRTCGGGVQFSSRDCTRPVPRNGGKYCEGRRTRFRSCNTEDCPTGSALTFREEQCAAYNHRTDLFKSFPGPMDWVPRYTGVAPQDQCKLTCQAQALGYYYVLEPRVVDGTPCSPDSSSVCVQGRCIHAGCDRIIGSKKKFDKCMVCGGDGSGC

MMP8 = MMP8 (human, UniProt P22894 101-467, limits assumed)
Sequence of MMP8 (P22894 101-467 limits assumed): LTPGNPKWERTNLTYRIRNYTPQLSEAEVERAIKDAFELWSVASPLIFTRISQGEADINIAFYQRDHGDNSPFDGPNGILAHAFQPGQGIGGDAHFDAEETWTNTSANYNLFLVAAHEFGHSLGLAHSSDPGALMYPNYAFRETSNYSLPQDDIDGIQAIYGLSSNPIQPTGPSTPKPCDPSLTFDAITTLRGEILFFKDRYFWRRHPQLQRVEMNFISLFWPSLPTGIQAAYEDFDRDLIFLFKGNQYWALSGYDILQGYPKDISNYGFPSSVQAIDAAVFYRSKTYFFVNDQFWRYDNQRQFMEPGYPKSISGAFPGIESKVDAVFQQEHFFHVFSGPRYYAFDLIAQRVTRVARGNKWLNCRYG

Elastase = molecular target: Elastase
MMP1 = molecular target: T6, MMP1 (human, UniProt P03956 100-469, limits assumed)
T6 sequence (looked up): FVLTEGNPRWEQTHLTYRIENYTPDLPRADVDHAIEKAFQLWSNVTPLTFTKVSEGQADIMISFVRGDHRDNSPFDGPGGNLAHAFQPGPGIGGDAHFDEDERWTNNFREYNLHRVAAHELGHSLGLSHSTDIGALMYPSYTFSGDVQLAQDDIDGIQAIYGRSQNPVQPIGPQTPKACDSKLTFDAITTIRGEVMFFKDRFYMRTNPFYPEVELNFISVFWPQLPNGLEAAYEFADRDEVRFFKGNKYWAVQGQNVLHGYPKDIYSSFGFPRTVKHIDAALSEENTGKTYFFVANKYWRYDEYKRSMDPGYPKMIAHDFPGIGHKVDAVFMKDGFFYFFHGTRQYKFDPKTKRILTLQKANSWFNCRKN

Sequence of MMP9 (P14780 107-707 limits assumed): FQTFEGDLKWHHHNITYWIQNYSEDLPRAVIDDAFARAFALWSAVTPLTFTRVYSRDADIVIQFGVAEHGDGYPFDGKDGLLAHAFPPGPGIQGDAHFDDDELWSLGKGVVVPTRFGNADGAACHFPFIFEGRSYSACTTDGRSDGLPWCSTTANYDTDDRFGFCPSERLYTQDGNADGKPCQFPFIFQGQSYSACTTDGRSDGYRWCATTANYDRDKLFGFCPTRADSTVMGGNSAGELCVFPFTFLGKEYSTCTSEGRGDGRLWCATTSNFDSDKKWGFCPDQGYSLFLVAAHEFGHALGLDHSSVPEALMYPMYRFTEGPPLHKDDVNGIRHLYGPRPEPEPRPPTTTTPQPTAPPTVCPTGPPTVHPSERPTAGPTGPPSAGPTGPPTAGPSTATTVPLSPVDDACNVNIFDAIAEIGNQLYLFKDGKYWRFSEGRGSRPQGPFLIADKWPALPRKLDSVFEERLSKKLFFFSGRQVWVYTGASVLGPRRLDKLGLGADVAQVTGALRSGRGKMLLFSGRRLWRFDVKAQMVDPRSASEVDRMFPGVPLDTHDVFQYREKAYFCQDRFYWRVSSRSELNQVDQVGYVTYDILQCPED
Sequence of MMP3 (P08254 100-477 limits assumed): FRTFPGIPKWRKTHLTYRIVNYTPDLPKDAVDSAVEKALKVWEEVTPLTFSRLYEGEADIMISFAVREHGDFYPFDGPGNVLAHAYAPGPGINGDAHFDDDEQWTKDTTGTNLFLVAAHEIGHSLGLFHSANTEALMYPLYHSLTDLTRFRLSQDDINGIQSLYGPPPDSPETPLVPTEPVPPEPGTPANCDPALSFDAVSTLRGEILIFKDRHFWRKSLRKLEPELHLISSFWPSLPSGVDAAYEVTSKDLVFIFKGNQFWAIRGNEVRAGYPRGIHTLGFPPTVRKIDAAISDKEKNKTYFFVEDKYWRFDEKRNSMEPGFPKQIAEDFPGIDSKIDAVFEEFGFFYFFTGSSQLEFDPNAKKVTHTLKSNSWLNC

Row | Protease Inhibition (% of WT) (MMP3) | Protease Inhibition (% of WT) (MMP9) | Protease Inhibition (% of WT) (Cathepsin G) | Protease Inhibition (% of WT) (MMP7) | Protease Inhibition (% of WT) (MMP2) | Protease Inhibition (% of WT) (ADAMTS5) | Protease Inhibition (% of WT) (MMP13) | Protease Inhibition (% of WT) (ADAMTS4) | Protease Inhibition (% of WT) (MMP8) | Protease Inhibition (% of WT) (Elastase) | Protease Inhibition (% of WT) (MMP1) | Binder
1 | 27 % of WT | 20 % of WT | 66 % of WT | 80 % of WT | 27 % of WT | 145 % of WT | 88 % of WT | 124 % of WT | 33 % of WT | 93 % of WT | 67 % of WT | Variant A2M, bait region SEQ ID NO 9 (other) SVSGKPQYMVLVPSLLHTETTEKGCVLLSYLNETVTVSASLESVRGNRSLFTDLEAENDVLHCVAFAVPKSSSNEEVMFLTVQVKGPTQEFKKRTTVMVKNEDSLVFVQTDKSIYKPGQTVKFRVVSMDENFHPLNELIPLVYIQDPKGNRIAQWQSFQLEGGLKQFSFPLSSEPFQGSYKVVVQKKSGGRTEHPFTVEEFVLPKFEVQVTVPKIITILEEEMNVSVCGLYTYGKPVPGHVTVSICRKYSDASDCHGEDSQAFCEKFSGQLNSHGCFYQQVKTKVFQLKRKEYEMKLHTEAQIQEEGTVVELTGRQSSEITRTITKLSFVKVDSHFRQGIPFFGQVRLVDGKGVPIPNKVIFIRGNEANYYSNATTDEHGLVQFSINTTNVMGTSLTVRVNYKDRSPCYGYQWVSEEHEEAHHTAYLVFSPSKSFVHLEPMSHELPCGHTQTVQAHYILNGGTLLGLKKLSFYYLIMAKGGIVRTGTHGLLVKQEDMKGHFSISIPVKSDIAPVARLLIYAVLPTGDVIGDSAKYDVENCLANKVDLSFSPSQSLPASHAHLRVTAAPQSVCALRAVDQSVLLMKPDAELSASSVYNLLPEKDLTGFPGPLNDQDDEDCINRHNVYINGITYTPVSSTNEKDMYSFLEDMGLKAFTNSKIRKPKMCPQLEHGPEGEGEGEGIPENFFGVPRYLSEDLVVQISELEGRGSVEEPHTKLRKYFPETWIWDLVVVNSAGVAEVGVTVPDTITEWKAGAFCLSEDAGLGISSTASLRAFQPFFVELTMPYSVIRGEAFTLKATVLNYLPKCIRVSVQLEASPAFLAVPVEKEQAPHCICANGRQTVSWAVTPKSLGNVNFTVSAEALESQELCGTEVPSVPEHGRKDTVIKPLLVEPEGLEKETTFNSLLCPSGGEVSEELSLKLPPNVVEESARASVSVLGDILGSAMQNTQNLLQMPYGCGEQNMVLFAPNIYVLDYLNETQQLTPEIKSKAIGYLNTGYQRQLNYKHYDGSYSTFGERYGRNQGNTWLTAFVLKTFAQARAYIFIDEAHITQALIWLSQRQKDNGCFRSSGSLLNNAIKGGVEDEVTLSAYITIALLEIPLTVTHPVVRNALFCLESAWKTAQEGDHGSHVYTKALLAYAFALAGNQDKRKEVLKSLNEEAVKKDNSVHWERPQKPKAPVGHFYEPQAPSAEVEMTSYVLLAYLTAQPAPTSEDLTSATNIVKWITKQQNAQGGFSSTQDTVVALHALSKYGAATFTRTGKAAQVTIQSSGTFSSKFQVDNNNRLLLQQVSLPELPGEYSMKVTGEGCVYLQTSLKYNILPEKEEFPFALGVQTLPQTCDEPKAHTSFQISLSVSYTGSRSASNMAIVDVKMVSGFIPLKPTVKMLERSNHVSRTEVSSNHVLIYLDKVSNQTLSLFFTVLQDVPVRDLKPAIVKVYDYYETDEFAIAEYNAPCSKDLGNADYKDDDDKGASHHHHHH
2 | < 100 % of WT | 18 % of WT | 104 % of WT | 91 % of WT | 3 % of WT | 296 % of WT | 96 % of WT | 93 % of WT | 29 % of WT | 55 % of WT | 67 % of WT | Variant A2M, bait region SEQ ID NO 30 (other) SVSGKPQYMVLVPSLLHTETTEKGCVLLSYLNETVTVSASLESVRGNRSLFTDLEAENDVLHCVAFAVPKSSSNEEVMFLTVQVKGPTQEFKKRTTVMVKNEDSLVFVQTDKSIYKPGQTVKFRVVSMDENFHPLNELIPLVYIQDPKGNRIAQWQSFQLEGGLKQFSFPLSSEPFQGSYKVVVQKKSGGRTEHPFTVEEFVLPKFEVQVTVPKIITILEEEMNVSVCGLYTYGKPVPGHVTVSICRKYSDASDCHGEDSQAFCEKFSGQLNSHGCFYQQVKTKVFQLKRKEYEMKLHTEAQIQEEGTVVELTGRQSSEITRTITKLSFVKVDSHFRQGIPFFGQVRLVDGKGVPIPNKVIFIRGNEANYYSNATTDEHGLVQFSINTTNVMGTSLTVRVNYKDRSPCYGYQWVSEEHEEAHHTAYLVFSPSKSFVHLEPMSHELPCGHTQTVQAHYILNGGTLLGLKKLSFYYLIMAKGGIVRTGTHGLLVKQEDMKGHFSISIPVKSDIAPVARLLIYAVLPTGDVIGDSAKYDVENCLANKVDLSFSPSQSLPASHAHLRVTAAPQSVCALRAVDQSVLLMKPDAELSASSVYNLLPEKDLTGFPGPLNDQDDEDCINRHNVYINGITYTPVSSTNEKDMYSFLEDMGLKAFTNSKIRKPKMCPQLEQYEMHGPEGEGEGPRYLTAIPENFFGVSEDLVVQISELEGRGSPHTKLRKYFPETWIWDLVVVNSAGVAEVGVTVPDTITEWKAGAFCLSEDAGLGISSTASLRAFQPFFVELTMPYSVIRGEAFTLKATVLNYLPKCIRVSVQLEASPAFLAVPVEKEQAPHCICANGRQTVSWAVTPKSLGNVNFTVSAEALESQELCGTEVPSVPEHGRKDTVIKPLLVEPEGLEKETTFNSLLCPSGGEVSEELSLKLPPNVVEESARASVSVLGDILGSAMQNTQNLLQMPYGCGEQNMVLFAPNIYVLDYLNETQQLTPEIKSKAIGYLNTGYQRQLNYKHYDGSYSTFGERYGRNQGNTWLTAFVLKTFAQARAYIFIDEAHITQALIWLSQRQKDNGCFRSSGSLLNNAIKGGVEDEVTLSAYITIALLEIPLTVTHPVVRNALFCLESAWKTAQEGDHGSHVYTKALLAYAFALAGNQDKRKEVLKSLNEEAVKKDNSVHWERPQKPKAPVGHFYEPQAPSAEVEMTSYVLLAYLTAQPAPTSEDLTSATNIVKWITKQQNAQGGFSSTQDTVVALHALSKYGAATFTRTGKAAQVTIQSSGTFSSKFQVDNNNRLLLQQVSLPELPGEYSMKVTGEGCVYLQTSLKYNILPEKEEFPFALGVQTLPQTCDEPKAHTSFQISLSVSYTGSRSASNMAIVDVKMVSGFIPLKPTVKMLERSNHVSRTEVSSNHVLIYLDKVSNQTLSLFFTVLQDVPVRDLKPAIVKVYDYYETDEFAIAEYNAPCSKDLGNADYKDDDDKGASHHHHHH
